Key:
[1] = target: GLP-2R R242^ECL1A (human) (UniProt O95838); assay: radioligand binding; competition on transiently transfected COS-7 cells: unlabeled teduglutide 0.1 nM to 1 μM against 10–15 pM [125I]GLP-2(1–33, M10Y); 4 h, 4 °C; 50 mM HEPES pH 7.4, 1 mM CaCl2, 5 mM MgCl2, 0.5% BSA; three-parameter logistic fit
[2] = target: GLP-2R W340^5.36A (human) (UniProt O95838); assay: as above
[3] = target: GLP-2R W249^ECL1A (human) (UniProt O95838); assay: as above
[4] = target: GLP-2R R344^5.40A (human) (UniProt O95838); assay: as above
[5] = target: GLP-2R Y182^1.43A (human) (UniProt O95838); assay: as above
[6] = target: GLP-2R K414^7.35 A (human) (UniProt O95838); assay: as above
[7] = target: GLP-2R N334^ECL2 A (human) (UniProt O95838); assay: as above
[8] = target: GLP-2R H268^3.37A (human) (UniProt O95838); assay: as above
[9] = target: GLP-2R D244^ECL1A (human) (UniProt O95838); assay: as above
GLP-2R Y186^1.47A = target: T1, GLP-2R Y186^1.47A (Homo sapiens, UniProt O95838, Y186A); assay: cAMP accumulation, Y186^1.47A; format: cell-based; parameters: WT (1–553); expressed in transfected cells; HEK 293T (cAMP); conditions: Table S3, Y186A; HEK 293T, 30 min, RT; mean ± SEM, n ≥ 3 in duplicate; read-out: cAMP Emax (% WT)
T1 sequence (O95838 1-553 Y186A): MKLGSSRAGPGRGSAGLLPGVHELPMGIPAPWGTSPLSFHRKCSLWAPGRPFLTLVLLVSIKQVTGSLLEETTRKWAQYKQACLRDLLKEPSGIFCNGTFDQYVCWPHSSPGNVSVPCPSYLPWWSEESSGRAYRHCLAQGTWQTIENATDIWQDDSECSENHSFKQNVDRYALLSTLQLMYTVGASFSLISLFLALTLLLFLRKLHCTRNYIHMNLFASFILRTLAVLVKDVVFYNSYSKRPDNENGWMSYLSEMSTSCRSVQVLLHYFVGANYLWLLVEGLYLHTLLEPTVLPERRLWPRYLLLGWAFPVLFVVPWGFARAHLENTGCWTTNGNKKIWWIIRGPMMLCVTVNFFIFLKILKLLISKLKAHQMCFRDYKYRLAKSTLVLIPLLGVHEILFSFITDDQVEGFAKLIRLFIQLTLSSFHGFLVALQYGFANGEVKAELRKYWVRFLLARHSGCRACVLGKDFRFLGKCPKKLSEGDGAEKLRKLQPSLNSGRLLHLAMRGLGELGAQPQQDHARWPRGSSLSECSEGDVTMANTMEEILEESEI
Experimental: HEK 293T cells were cultured in Dulbecco’s Modified Eagle’s Medium (DMEM) (Gibco, Waltham, USA) supplemented with 10% (v/v) fetal bovine serum (FBS) (Gibco) and 1% (v/v) sodium pyruvate (Gibco) at 37 °C, 5% CO2 in a humidified incubator. They were seeded onto 6-well cell culture plates and transiently transfected with different GLP-2R constructs using Lipofectamine 2000 transfection reagent (Invitrogen, Carlsbad, CA, USA). After 24 h, the transfected cells were seeded onto 384-well microtiter plates (3000 cells per well) in HBSS supplemented with 5 mM HEPES, 0.1% (w/v) bovine serum albumin (BSA) and 0.5 mM 3-isobutyl-1- methylxanthine, and stimulated with increasing concentrations of GLP-2 for 30 min at RT. Eu and Ulight were diluted by cAMP detection buffer and added to the plates separately to terminate the reaction. Plates were incubated at RT for 60 min before measuring the fluorescence intensity at 620 nm and […] by an EnVision multilabel plate reader (PerkinElmer, Boston, USA).

| % Binding of WT [1] [%] | % Binding of WT [2] [%] | % Binding of WT [3] [%] | % Binding of WT [4] [%] | % Binding of WT [5] [%] | % Binding of WT [6] [%] | % Binding of WT [7] [%] | % Binding of WT [8] [%] | % Binding of WT [9] [%] | Compound | Emax (GLP-2R Y186^1.47A) [%] |
| --- | --- | --- | --- | --- | --- | --- | --- | --- | --- | --- |
| 5.1 | 8.6 | 2.9 | 3.5 | 3.2 | 13.9 | 2 | 0.7 | 77.5 | [^125I]GLP-2(1–33, M10Y) (peptide) | – |
| – | – | – | – | – | – | – | – | – | CC[C@H](C)[C@H](NC(=O)[C@H](Cc1ccccc1)NC(=O)[C@H](CC(=O)O)NC(=O)[C@H](CCCNC(=N)N)NC(=O)[C@H](C)NC(=O)[C@H](C)NC(=O)[C@H](CC(C)C)NC(=O)[C@H](CC(N)=O)NC(=O)[C@H](CC(=O)O)NC(=O)[C@H](CC(C)C)NC(=O)[C@@H](NC(=O)[C@@H](NC(=O)[C@H](CC(N)=O)NC(=O)[C@H](CCSC)NC(=O)[C@H](CCC(=O)O)NC(=O)[C@H](CC(=O)O)NC(=O)[C@H](CO)NC(=O)[C@H](Cc1ccccc1)NC(=O)[C@H](CO)NC(=O)CNC(=O)[C@H](CC(=O)O)NC(=O)[C@H](C)NC(=O)[C@@H](N)Cc1c[nH]cn1)[C@@H](C)O)[C@@H](C)CC)C(=O)N[C@@H](CC(N)=O)C(=O)N[C@@H](Cc1c[nH]c2ccccc12)C(=O)N[C@@H](CC(C)C)C(=O)N[C@H](C(=O)N[C@@H](CCC(N)=O)C(=O)N[C@H](C(=O)N[C@@H](CCCCN)C(=O)N[C@H](C(=O)N[C@H](C(=O)N[C@@H](CC(=O)O)C(=O)O)[C@@H](C)O)[C@@H](C)CC)[C@@H](C)O)[C@@H](C)CC [Human GLP-2 (1–33)] | 100 ± 2.8 |
